Source: patent publication US20230149558A1, “DUOCARMYCIN DERIVATIVE AND USE THEREOF” (The University of Tokyo, priority 2020, published 2023)

How the values were obtained:
[1] = system: CEACAM5-positive MKN45 cells; assay: In vitro cytotoxicity test using CEA-V2122 and anticancer agent-labeled modified biotin (Cell Counting Kit-8); assay type: cell-based, human; settings: complex of CEA-V2122 and Compound 5, molar ratio 1:2; 1.0E-11 to 6.0E-07 final molar concentration; 48 hours; FIG. 8
Experimental: (§1) A cytotoxicity test was carried out using an anticancer agent-labeled modified biotin. The anticancer agent-labeled modified biotin is a compound described as Compound 5. For the assay, first, CEACAM5-positive MKN45 cells and CEACAM5-negative DLD1 cells were seeded on a 96-well plate for cell culture, so that the cell count became 5×10^3 cells/well and the amount of the culture solution became 50 μL/well, and thereafter, the cells were cultured overnight. A solution containing a complex of CEA-V2122 and a […] modified biotin was prepared by mixing CEA-V2122 and Compound 5 to a molar ratio of 1:2, and then incubating the mixture at room temperature for 10 minutes. […]
(§2) To the cells that had been cultured overnight, the complex serial dilution solutions were added in an amount of 50 μL/well to each well of the plate to the final molar concentration (1.0E-11, 3.0E-11, 9.1E-11, 2.7E-10, 8.2E-10, 2.5E-09, 7.4E-09, 2.2E-08, 6.7E-08, 2.0E-07, and 6.0E-07). […] The dosage and administration were determined by the instruction manuals included with the kit, and after the addition of the reagent, the mixture was incubated for 1.5 hours at 37° C. in a CO2 incubator. Thereafter, the absorbance at 450 nm was measured, and a mean value was then calculated, followed by background collection. […]

[2] = system: CEACAM5-negative DLD1 cells; assay: as above; assay type: cell-based, human; settings: complex of CEA-V2122 and Compound 5, molar ratio 1:2; 1.0E-11 to 6.0E-07 final molar concentration; 48 hours; FIG. 8
Experimental: as §1, §2

[3] = molecular target: T1, Recombinant Human CEACAM-5/CD66e Protein, CF (R & D SYSTEMS) (human, UniProt P06731 35-685); assay: SPR, Biacore T200; CEACAM5 immobilized on CM5 chip, CEA-V2122 as analyte; single-cycle kinetics, bivalent analysis fit, KD=kd1/ka1
T1 construct: Bought recombinant protein, immobilized on a CM5 chip by amine coupling (279 RU); also called antigen CEACAM5
T1 sequence (looked up): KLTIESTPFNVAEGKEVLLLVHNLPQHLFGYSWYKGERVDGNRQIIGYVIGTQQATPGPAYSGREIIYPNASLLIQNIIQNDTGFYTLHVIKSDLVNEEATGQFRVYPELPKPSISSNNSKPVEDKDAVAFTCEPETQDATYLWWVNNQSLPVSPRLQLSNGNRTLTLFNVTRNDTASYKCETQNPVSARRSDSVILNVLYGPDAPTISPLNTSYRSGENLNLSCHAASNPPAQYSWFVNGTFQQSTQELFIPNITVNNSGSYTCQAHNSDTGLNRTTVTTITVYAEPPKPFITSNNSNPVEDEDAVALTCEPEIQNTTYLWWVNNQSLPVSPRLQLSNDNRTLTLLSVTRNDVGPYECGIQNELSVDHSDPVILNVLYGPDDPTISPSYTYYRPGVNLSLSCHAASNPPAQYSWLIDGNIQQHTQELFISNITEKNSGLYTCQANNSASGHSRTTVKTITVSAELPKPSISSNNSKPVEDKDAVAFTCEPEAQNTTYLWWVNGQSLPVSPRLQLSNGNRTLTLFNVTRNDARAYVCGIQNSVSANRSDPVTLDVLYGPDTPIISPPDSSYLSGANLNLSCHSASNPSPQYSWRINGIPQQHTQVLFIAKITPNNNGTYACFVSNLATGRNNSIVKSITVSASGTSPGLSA
Experimental: (§3) The affinity of CEA-V2122 for the antigen CEACAM5 was evaluated using a surface plasmon resonance (SPR) measuring device, Biacore T200 (GE Healthcare Life Sciences). Specifically, Recombinant Human CEACAM-5/CD66e Protein, CF (R & D SYSTEMS) was immobilized on Sensor Chip CM5 (GE Healthcare Life Sciences) using an amine-coupling kit (GE Healthcare Lite Sciences). The final amount of the ligand immobilized was 279 RU. Moreover, about the purified CEA-V2122, two-fold serial dilutions from 1E-08 to 6.25E-10 M were prepared as analytes. Regarding interaction analysis, data were obtained by single-cycle kinetics analysis.

[4] = molecular target: T2, Recombinant Human CEACAM-5/CD66e Protein (Homo sapiens, UniProt P06731); assay: SPR (Biacore T200) affinity of CEA-V2122 for the antigen CEACAM5; assay type: binding
T2 construct: purchased R & D SYSTEMS
T2 sequence (P06731 35-676): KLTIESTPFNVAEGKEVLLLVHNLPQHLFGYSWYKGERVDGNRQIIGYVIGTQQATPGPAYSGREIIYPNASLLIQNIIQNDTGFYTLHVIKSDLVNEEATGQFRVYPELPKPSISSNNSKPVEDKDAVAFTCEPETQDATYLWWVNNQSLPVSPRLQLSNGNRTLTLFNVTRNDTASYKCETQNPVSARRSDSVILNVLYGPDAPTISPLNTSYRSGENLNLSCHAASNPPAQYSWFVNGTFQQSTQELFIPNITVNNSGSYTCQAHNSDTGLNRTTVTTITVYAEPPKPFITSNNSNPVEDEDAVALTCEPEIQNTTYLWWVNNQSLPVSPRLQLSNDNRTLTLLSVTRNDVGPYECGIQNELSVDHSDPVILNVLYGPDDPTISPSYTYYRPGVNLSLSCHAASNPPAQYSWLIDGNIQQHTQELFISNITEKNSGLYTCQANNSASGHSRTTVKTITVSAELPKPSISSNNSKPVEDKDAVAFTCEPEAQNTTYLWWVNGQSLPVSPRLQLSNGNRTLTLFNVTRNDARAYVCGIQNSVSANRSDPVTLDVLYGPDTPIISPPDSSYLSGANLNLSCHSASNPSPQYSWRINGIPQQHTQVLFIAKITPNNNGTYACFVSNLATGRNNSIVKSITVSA
Experimental: as §3, with “analysis. Using Biacore T200 Evaluation Software, version 2.0, the obtained data were subjected to curve fitting in a bivalent analysis mode, and the following values were obtained: ka1−3.208E+5, and kd1=3.461E-7.” for “analysis.”

[5] = molecular target: T3, CEACAM5 (Homo sapiens, UniProt P06731); assay: Cell staining of CEACAM5-expressing cell line using FITC-labeled CEA-V2122; assay type: cell-based
T3 construct: endogenous in cells; host or cells: MKN-45 (CEACAM5-positive); DLD1 (CEACAM5-negative control)
T3 sequence (P06731 35-685 limits assumed): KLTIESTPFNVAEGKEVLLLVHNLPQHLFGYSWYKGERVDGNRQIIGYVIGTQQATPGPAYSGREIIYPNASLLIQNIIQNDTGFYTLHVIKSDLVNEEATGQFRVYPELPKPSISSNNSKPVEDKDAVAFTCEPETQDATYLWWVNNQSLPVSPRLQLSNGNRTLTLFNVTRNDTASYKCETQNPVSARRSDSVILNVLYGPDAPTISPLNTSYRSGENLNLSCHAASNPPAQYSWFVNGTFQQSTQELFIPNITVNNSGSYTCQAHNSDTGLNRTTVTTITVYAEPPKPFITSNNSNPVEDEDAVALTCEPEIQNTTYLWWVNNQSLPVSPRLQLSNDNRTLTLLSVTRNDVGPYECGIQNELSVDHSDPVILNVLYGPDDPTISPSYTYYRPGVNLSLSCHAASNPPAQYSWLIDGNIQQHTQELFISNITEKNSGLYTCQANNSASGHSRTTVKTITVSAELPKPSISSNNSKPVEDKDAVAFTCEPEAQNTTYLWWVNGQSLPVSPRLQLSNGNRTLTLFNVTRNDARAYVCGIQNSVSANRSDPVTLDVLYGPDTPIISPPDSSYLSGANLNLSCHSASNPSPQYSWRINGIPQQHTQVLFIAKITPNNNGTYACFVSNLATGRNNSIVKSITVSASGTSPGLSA
Experimental: In order to stain a CEACAM5 expression-positive cancer cell line, FITC labeling was carried out on the cell line, using 100 μg of a purified CEA-V2122 protein. Specifically, labeling was carried out using Fluorescein Labeling Kit—NH2 (DOJINDO LABORATORIES) in accordance with the dosage and administration described in the operating manual included with the kit, and the obtained product was defined to be CEA-V2122-FITC. Specific staining of the CEACAM5 expression-positive cancer cell line is as follows. That is, CEACAM5-positive human stomach cancer-derived MKN-45 cells and CEACAM5-negative human colon cancer-derived DLD1 cells were each seeded on a CELLSTAR, μClear, 96-well plate (Greiner) to a cell density of 2.0×10^4 cells/well, and thereafter, the cells were cultured overnight. Subsequently, a culture solution containing 20 nM CEA-V2122-FITC and 1 μM Hoechist was added to the 96-well plate to a concentration of 100 μL/well, and the obtained mixture was then reacted at 4° C. for 30 minutes. Thereafter, each image was taken using In Cell Analyzer 6000 (GE Healthcare Life Sciences).

[6] = CEACAM5 immobilized on Sensor Chip CM5 (279 RU), single-cycle kinetics, bivalent analysis mode

COC(=O)c1cc2c([nH]1)C(=O)C=C1N(C(=O)c3cc4cc(OC)c(OCCNC(=O)[C@@H](NC(=O)[C@H](C)NC(=O)OCCOCCOCCn5cc(CCC(=O)NCCOCCOCCN(CC(=O)NCCCCNC(=O)CCCC[C@@H]6SC[C@@H]7NC(=N)N[C@@H]76)CC(=O)NCCCCNC(=O)CCCC[C@@H]6SC[C@@H]7NC(=N)N[C@@H]76)nn5)C(C)C)c(OC)c4[nH]3)C[C@H]3CC123 (some centres unmarked) [Compound 5]
cell growth ratio to control [1]: suppression of the cell growth of the CEACAM5-positive MKN45 cells was confirmed in a complex concentration-dependent manner | cell growth ratio to control [2]: such a concentration-dependent effect of suppressing the cell growth of the CEACAM5-negative DLD1 cells was not confirmed

B1: CEA-V2122 (scFv)
chain: QVKLEQSGAEVVKPGASVKLSCKASGFNIKDSYMHWLRQGPGQRLEWIGWIDPENGDTEYAPKFQGKATFTTDTSANTAYLGLSSLRPEDTAVYYCNEGTPTGPYYFDYWGQGTLVTVSSGGGGSGGGGSGGGGSENVLTQSPSSMSVSVGDRVNIACSASSSVPYMHWLQQKPGKSPKLLIYLTSNLASGVPSRFSGSGSGTDYSLTISSVQPEDAATYYCQQRSSYPLTFGGGTKLEIKGGGGSGGGGAEAGITGTWSDQLGDTFIVTAGADGALTGTYENAVGGAESRYVLTGRYDSAPATDGSGTALGWTVAWKNNSKNAHSATTWSGQYVGGADAKINTQWLLTSGTTNANAWKSTLVGHDTFTKVKPSAASHHHHHH
notes: Fusion of an anti-CEACAM5 scFv with the mutant streptavidin V2122; also called scFv-V2122; CEA-V2122 fusion protein
Kd [3]: 1.08 pM

B2: CEA-V2122: scFv-type anti-CEACAM5 antibody bound with mutant streptavidin V2122 via an amino acid linker (GGGGSGGGG), SEQ ID NO: 3 (protein)
chain: QVKLEQSGAEVVKPGASVKLSCKASGFNIKDSYMHWLRQGPGQRLEWIGWIDPENGDTEYAPKFQGKATFTTDTSANTAYLGLSSLRPEDTAVYYCNEGTPTGPYYFDYWGQGTLVTVSSGGGGSGGGGSGGGGSENVLTQSPSSMSVSVGDRVNIACSASSSVPYMHWLQQKPGKSPKLLIYLTSNLASGVPSRFSGSGSGTDYSLTISSVQPEDAATYYCQQRSSYPLTFGGGTKLEIKGGGGSGGGGAEAGITGTWSDQLGDTFIVTAGADGALTGTYENAVGGAESRYVLTGRYDSAPATDGSGTALGWTVAWKNNSKNAHSATTWSGQYVGGADAKINTQWLLTSGTTNANAWKSTLVGHDTFTKVKPSAASHHHHHH
ka1 [4, 6]: 3.208E+5 | kd1 [4, 6]: 3.461E-7 | KD=kd1/ka1 ([4]; bivalent analysis, KD=kd1/ka1): 1.078E−12

B3: CEA-V2122-FITC: purified CEA-V2122 protein labeled using Fluorescein Labeling Kit—NH2 (protein)
chain: QVKLEQSGAEVVKPGASVKLSCKASGFNIKDSYMHWLRQGPGQRLEWIGWIDPENGDTEYAPKFQGKATFTTDTSANTAYLGLSSLRPEDTAVYYCNEGTPTGPYYFDYWGQGTLVTVSSGGGGSGGGGSGGGGSENVLTQSPSSMSVSVGDRVNIACSASSSVPYMHWLQQKPGKSPKLLIYLTSNLASGVPSRFSGSGSGTDYSLTISSVQPEDAATYYCQQRSSYPLTFGGGTKLEIKGGGGSGGGGAEAGITGTWSDQLGDTFIVTAGADGALTGTYENAVGGAESRYVLTGRYDSAPATDGSGTALGWTVAWKNNSKNAHSATTWSGQYVGGADAKINTQWLLTSGTTNANAWKSTLVGHDTFTKVKPSAASHHHHHH
stained cell images (recognition of CEACAM5) ([5]; 20 nM CEA-V2122-FITC, 4° C. for 30 minutes, CEACAM5-positive MKN-45 vs CEACAM5-negative DLD1 cells, FIG. 5): specifically recognizes CEACAM5 on the surface of the cell membrane | time-series stained MKN45 cell images (localisation after binding) ([5]; MKN45 cells, time-series data, FIG. 6): the CEACAM5 stays on the surface of the cell membrane
